Data as given in publication PMC12108899.

Target: hemocyanin from Macrobrachium acanthurus (Macrobrachium acanthurus)
Experiment: AUC; sedimentation velocity, HcMac at 100, 200 and 300 ug/mL, Tris-HCl 100 mmol/L with NaCl 50 mmol/L, pH 7.0, 20 °C, absorbance at 280 nm, SEDFIT c(S) and c(M); single 19S species of about 450 kDa; hexamer of monomeric subunits

“hemocyanin from Macrobrachium acanthurus (natural protein)” was tested, and the stoichiometry N was 6.
